Measurements as given in US20130116201, “USE OF PEPTIDES AS TRANSPORTERS […] FOR THE INTERNALIZATION OF MOLECULES OF […] INTO TARGET CELLS” (UNIVERSITE JOSEPH FOURIER, published 2013).

Tests used:
ZEBRA Z6 = ZEBRA Z6 (Epstein-Barr virus, UniProt P03206 SEQ:1-75); assay: EMSA; efficiency almost equal to full-length ZEBRA; poly(dI-dC), 4 C; details: tags: N-terminal His6 (pET15b); chain copies: 2; label: biotin
ZEBRA Z4 = ZEBRA Z4 (Epstein-Barr virus, UniProt P03206 SEQ:1-105); assay: as above; details: tags: N-terminal His6 (pET15b); chain copies: 2; label: biotin
ZEBRA Z8 = ZEBRA Z8 (Epstein-Barr virus, UniProt P03206 P03206:195-245); assay: EMSA; dimerization domain without DNA-binding domain; details: tags: N-terminal His6 (pET15b); label: biotin
ZEBRA Z7 = target: T1, ZEBRA Z7 (Epstein-Barr virus, UniProt P03206 P03206:170-195); assay: EMSA; no dimerization domain; details: tags: N-terminal His6 (pET15b); label: biotin
T1 chain: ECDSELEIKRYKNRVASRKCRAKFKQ

ZEBRA Z5 = ZEBRA Z5 (Epstein-Barr virus, UniProt P03206 P03206:140-195); assay: EMSA; no dimerization domain; details: tags: N-terminal His6 (pET15b); label: biotin
ZEBRA full-length (Z-FL) = ZEBRA full-length (Z-FL) (Epstein-Barr virus, UniProt P03206 P03206:1-245); assay: EMSA; poly(dI-dC), 1 mM DTT, 4 C; details: tags: N-terminal His6 (pET15b); chain copies: 2; label: biotin
ZEBRA Z2 = ZEBRA Z2 (Epstein-Barr virus, UniProt P03206 P03206:1-170); assay: EMSA; neither DIM nor DB domain; details: tags: N-terminal His6 (pET15b); label: biotin
ZEBRA Z3 = ZEBRA Z3 (Epstein-Barr virus, UniProt P03206 P03206:1-140); assay: EMSA; neither DIM nor DB domain; details: tags: N-terminal His6 (pET15b); label: biotin
ZEBRA Z3, sequence (P03206 1-140, one chain of several): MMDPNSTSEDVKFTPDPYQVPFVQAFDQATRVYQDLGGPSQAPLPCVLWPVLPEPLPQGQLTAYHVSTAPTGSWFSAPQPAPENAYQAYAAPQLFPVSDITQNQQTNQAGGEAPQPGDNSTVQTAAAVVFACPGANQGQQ

ZEBRA Z2, sequence (P03206 1-170, one chain of several): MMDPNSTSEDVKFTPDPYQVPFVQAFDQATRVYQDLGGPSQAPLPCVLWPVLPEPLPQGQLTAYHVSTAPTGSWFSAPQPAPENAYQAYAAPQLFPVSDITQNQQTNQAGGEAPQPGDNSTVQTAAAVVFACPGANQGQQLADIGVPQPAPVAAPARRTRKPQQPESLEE
ZEBRA Z4, sequence (P03206 141-245): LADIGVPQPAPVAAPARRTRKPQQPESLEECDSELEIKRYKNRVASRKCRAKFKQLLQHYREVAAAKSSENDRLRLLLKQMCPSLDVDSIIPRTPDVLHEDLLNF
ZEBRA Z8, sequence (P03206 195-245, one chain of several): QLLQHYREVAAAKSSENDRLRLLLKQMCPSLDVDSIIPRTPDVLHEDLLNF
ZEBRA Z6, sequence (P03206 171-245): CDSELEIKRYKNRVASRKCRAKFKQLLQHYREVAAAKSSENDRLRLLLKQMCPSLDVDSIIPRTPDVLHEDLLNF
ZEBRA full-length (Z-FL), sequence (P03206 whole entry, the tested form may be a part, one chain of several): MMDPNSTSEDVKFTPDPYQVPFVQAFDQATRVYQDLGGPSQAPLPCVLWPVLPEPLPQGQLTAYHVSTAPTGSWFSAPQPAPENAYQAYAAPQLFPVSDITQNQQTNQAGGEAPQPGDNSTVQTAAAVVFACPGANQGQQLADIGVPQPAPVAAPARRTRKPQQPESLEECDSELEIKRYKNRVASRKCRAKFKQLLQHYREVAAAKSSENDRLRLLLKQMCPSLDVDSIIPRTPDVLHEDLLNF

B1: AP-1 probe (dsDNA)
DNA 1: AGCACTGACTCATGAAGT
DNA 2: TACTTCATGAGTCAGTGCT
binding result (ZEBRA Z6): binds | binding result (ZEBRA Z4): binds | binding result (ZEBRA Z8): no binding | binding result (ZEBRA Z7): no binding | binding result (ZEBRA Z5): no binding | binding result (ZEBRA full-length (Z-FL)): binds | binding result (ZEBRA Z2): no binding | binding result (ZEBRA Z3): no binding
